According to a protein production outcome set (Wang et al. 2014):

Experiment: label from the status in PepcDB records
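Note: failed if final PepcDB status was selected cloned or expressed and not failed if soluble or beyond.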

Sequence: MAQKKGFKYRFYPTDKQKAVLAKVFGHTRYVWNWALELRTDAYYEEGESLSYTDTAKRLTDLKKEKTWLREVSSVALQQKLRDLDQAFQNFFDGRCGYPNFKSKHDKQAARFASNAFTLHGKKLSVAKVPGSLNVRWSRDLPDEAKPTSVTLTKDPAGRYFVSITSAVPEPDPEPTVTDGDGNQKSVGIDLGIADIVVTSDGWKSGNPRHLENDLYRLRKAQRRLSRKEKNGSDGPSENWKKQKRRVAKIHAEIKDKREDFLHKLSRRVVDENQVIALESLSVKGMQQNRSLARPISDTGWSTLVRMIEYKAKEAGRTVVKIDRWFPSTKRCSECGYVTESKPLSVRSWDCPRCDTTHDRDINAAKNIRTAGLAGAFQKANDSGGHSKTRDAFRIERFGANAHGPVNE
- protein production: failed

Sequence: MGTGGITSNAHVVSPTWHHKHVPPMDDDSVLQRDIGELLSRWGGLQMAVKNQWGGHDSLKKSQELAHNLFHLISQSNGSIFFLLL
- protein production: failed

Sequence: MFRQLKKNLVATLIAAMTIGQVAPAFADSADTLPDMGTSAGSTLSIGQEMQMGDYYVRQLRGSAPLINDPLLTQYINSLGMRLVSHANSVKTPFHFFLINNDEINAFAFFGGNVVLHSALFRYSDNESQLASVMAHEISHVTQRHLARAMEDQQRSAPLTWVGALGSILLAMASPQAGMAALTGTLAGTRQGMISFTQQNEQEADRIGIQVLQRSGFDPQAMPTFLEKLLDQARYSSRPPEILLTHPLPESRLADARNRANQMRPMVVQSSEDFYLAKARTLGMYNSGRNQLTSDLLDEWAKGNVRQQRAAQYGRALQAMEANKYDEARKTLQPLLAAEPGNAWYLDLATDIDLGQNKANEAINRLKNARDLRTNPVLQLNLANAYLQGGQPQEAANILNRYTFNNKDDSNGWDLLAQAEAALNNRDQELAARAEGYALAGRLDQAISLLSSASSQVKLGSLQQARYDARIDQLRQLQERFKPYTKMLEHHHHHH
- protein production: not failed

Sequence: MKVTQLSSETLDRAHERFEETLAQMTVAEANTMPAPLIKSVTWLMWHTARELDLQISALNHSDPLWLSQHWTEKFALDLPDETEDWHHTPEEAAKVVVAEKQLLSDYLAASVALTKSYLDQIKEEQLSDVIDKNWTPPVTRQVRLVSAIDDAVMHSGQAVYTRRLVIGK
- protein production: not failed

Sequence: MSLIAIVLVFIMAIVVTVFLSHLLPVKVPLPLIQIAAGAALAASGFQVDFDPHIFLLLFIPPLLFLDGWRIPKDAFFRDMKPILSLAIGLVMVTILGIGLFIHWLIPAITVAAGFALAAILSPTDPVAVSAMTASSPLPSRMAHILEGESLLNDASGLVAFNFAIAAVLTGSFSPGDAVVKFFLMAFGGILSGLVVVWVTGKCNNFLVRRTREEPAIQILISLLIPFAAYLLAEAFHVSGILAAVAAGIAMHYEQLSGPRLPATRMKSSAVWSMLQTTLNGMIFLMLGEQLPRMLRTLPAVASQAGVSSPWYLLLYAVAITLALGLMRFAWVWLSMKLTIFRRKRRGKAITVRPRFSILAVMALAGVKGSVTLAGILTLPVVLADGSPFPGRELLIFLSMAVILMSLVVAAIGLPFMTRYLADDLPHDTGKDDIGAVMTEVAINRLNALLDEPVEDPSEQALRADAGNMLLETYQRRLHYNDNDEGQDVGLELAKRARLEKYMQREVIIAQRQELFRLRRAHNISDITFYEVLREIDLKEESLR
- protein production: failed

Sequence: MIKSFRHKGLKKFFESGSTAGIQPAHKNRLARQLHQLNVASCPDDMNLPGWGLHLLQGKNPKKQDVDGHYSISVNGNWRLTFYFDHGDAVLVDYQDYH
- protein production: failed

Sequence: MPFEDALAIVNAAMQTLLGRQLSDIETLIFEGSWQSKTYPQIADGAGYSINYLTTDVGPKFWKVLSQALGEPVNKKNFKAAIRRYCVVQSGGEWESEGFQTQLPSYPSILSWGEAPDVSQFYGREEEQALLQRWIEAERCRLIAVLGMGGIDKSTLTTKVVQGFVQGDGVEEWEGDNINIKKIQNPLQEGQSPTKFKIQHLPSSPATPFTHIIWRSLRNAPPLEALLAELIDLLSEHQETVGDRARLLHWLRKTRCLIVLDNLETILQAGDHAGYYRDGYGDYGELIQLLGETPHQSCVLLTSREKPAEIAVLEGLDGNTRTLQLSGSVATAIAIIQQKGLQGTEEQQQVLCDRYSYNPLALKIVSTTIQDLFDGDISAFLTEDAVIFNSIRRLLDAQFQRLTELEQAIIIWLAINRDWTAIAELAADLVPPVPKVKLLEALESLRWRGLIETQDKRYTLQPVVMEYVTERFIEQINQELEMGQPQYWQQFALLKLTVRDHITETQRRLIVHSTAAQFGDCFPSPELQRQQLQTVLTAIRESVIAGYGVGNLINLSNALDLDLAGFDFSQLTIRQADLRHRLFQHLNFAQANFRDSAFKQTFGSIFSLSYSPAGDYLITGDDVGVVRLWKSAEMQPMQSYPLHRSYVWDLRPSADGRWLATCSEDQTVKITNLATGQLQATLVVAPTIARAIVWIGPDCLAIGGIDGHIRLWYPFTEQAPVLVTAHTDIVNSLSWDANSNLLASSSSDSTVKLWDVETGICHRIWREAVPVRWATWSPDGHTLAISREDGGIVLWNPHSDQAPRYLNGHPETVWSLDWNPDGAWLASSSHDATVRLWDVVTGRCRRILRSHQNWVWYARWHPHQPRIISGGHDGTLKLWDTGTGQCLKSLTGHMANIRAIAPAPDGQTLALGCDDTIVRLCGADSPPSFIHAFGHSHLISDLCWNPTGENLASASHDCNLRVWQRSPLRCTQVLKGHTNWVWSVDWHPTQDLLASGSVDSTIRLWYPTQSTPVKTLMAQTSWILSVRWHPTGRWLASAAGDFTIGLWNSKTWECTHLLTGHTHWIWCLAWSPNGQYLASGGYDNTVFIWKVEKEVTSLRTLEHPTILSAIAWHPDGELLATSCHDGNIRLWHWQTGQCVTRISGHQGEILTLKFSPDGKRLYSSSQDETWKTWDWQTGTCLASDRLDRPYEGMNISEVRGLTEVRKAALRALGATEGSQPPGDLVRWLRKTEQGRKL
- protein production: failed

Sequence: MSVVTESKTARKWAMPDTLVIIFFVAILTSIATWVVPVGMFDSQEVQYQVDGQTKTRKVVDPHSFRIVTNEAGEAQYHRVQFFTTGDERPGLMNFPFEGLTSGSKFGTAVGIIMFMLVIGGAFGIVMRTGTVDNGILALIRHTRGNEVLFIPVLFVLFSLGGAVFGMGKEAVAFAIIIAPLMVRLSYDSITTVLVTYIATQIGFASSWMNPFCVVVAQGIAGVPVLSGSGLRIVVWIVATLIGLVFTLVYASRVKKNPLLSRVHESDRYFREQQDEVVQRPFTFGDWLVLLVLTGVMIWVVWGVIVHAWFIPEIASQFFTMGVVIGLIGVIFRLNGMTVNVMASSFTEGARMMIAPALLVGFAKGILLLVGNGEAGEPSVLNTLLNSIAHGISGLNNAIAAWFMLLFQAVFNFFVTSGSGQAALTMPLLAPLGDLVGVNRQVTVLAFQFGDGFSHIIYPTSASLMATLGVCRVDFRNWLKVGASLLGLLFIMSSVVVIGAQMMGYH
- protein production: failed

Sequence: MRITLVTDSTSDLPQDLRGRLGVRVVPLYVNLSGAIYRDWEEITPTEIFQKVREGAAFPTTSQPSPEDFARVYREALEEADHVLSLHISGKLSGTVQSAELAAQEFPGRVTVVDTQAASLGVGMMVLRAKELLEEGQSLEAVLAELERLRRDHFVRFSVATLEFLKRGGRIGGAQAFLGTLLNLKPVLTLKEGRVEAAGRARGEKKAREEILKAFRAWAEGRKRIRAYFLYSGDEDAVAALRQEVLASGLPVEEALVNELGAVIASHTGPGTYGFYAYSL
- protein production: not failed

Sequence: MSEIIIQNLISPVVLFFLLGIIAATFKSDLQFPKGLTEALSMYLLIAIGIKGGIELSHYHLEAVIGPVIGTIFLGMLIPVIVLMITRLFMKVDLKNSIALAATYGSTSIVTYGAAVSFLEKSGTTYEGFMNAMVVLKESPAILVSLLLLSIIERQQAVPTTLSSKRVGIVSGHQGLIDKEVLKESFFGKSIILLLGSLIIGLVVGERAIPMVQPLFIDLYQSVLILFLLYMGLTVGERLPEVKKHGIKLILFGVLTPILLGALGVLVGTLAGLSVGGATLMGILAGSASYIAAPAALRTSVPEANPSIYLGLSLGVTFPFNLIFGIPLYFEFAKLLH
- protein production: failed

Sequence: MCLGIPARVVEVLDGPLPMAVVDMAGEQRPCSVMYVPEVQVGQFVLLQNGYAMEVLDEKSAQESLATIAEFNLVQQVQLAPRE
- protein production: failed

Sequence: MVKCLSAHNKAPHVSVITPSYNSRRFIGETILSVQNQSYENWEMIIVDDCSTDQSAAKIKEIIEGDSRIRLLSLKENVGAAKARNLAIREARGRYIAFLDSDDIWLPHKLKTQLLFMEEMNIAFSYASYSLIDENGNELNREVSVPKSVDYHYLVGNTIIGCLTVMIDREKIPYVEMPSVQPEDTALWLNLLHEGHEAKGIQQVLAKYRIVANSVSSNKVRAAFRYWKLLRDQKSLNAVQSFYYFSKYAYHAYKKNKINVVGKTQLLEHHHHHH
- protein production: failed
